Results taken from article PMC10470521, “Structural basis of a bi-functional malonyl-CoA reductase (MCR) from the photosynthetic green non-sulfur bacterium Roseiflexus castenholzii” (mBio, 2023).
Numbering of substitutions follows the chain as printed. Names and notes keep the numbering of the source.

How the values were obtained:
[1] = substrate: CC(C)(COP(=O)(O)OP(=O)(O)OC[C@H]1O[C@@H](n2cnc3c(N)ncnc32)[C@H](O)[C@@H]1OP(=O)(O)O)[C@@H](O)C(=O)NCCC(=O)NCCSC(=O)CC(=O)O; assay: purified protein; format: biochemical, Roseiflexus castenholzii; settings: 0.4 mM NADPH, 5 mM MgCl2, 100 mM Tris-HCl pH 8.0, 150 mM NaCl, 50°C, apparent, overall two-step reduction
[2] = biological target: the molecule itself; assay: SEC; gel filtration on HiLoad 16/600 Superdex 200PG; 25 mM Tris-HCl pH 8.0, 150 mM NaCl
[3] = biological target: the molecule itself; assay: crystal structure; RfxMCR-N with NADP+ and MSA; 1 M sodium malonate pH 5.0, 0.1 M sodium acetate pH 4.5, 3% PEG 20,000, 16°C; P6(5)22, one monomer in the asymmetric unit, dimer by crystal packing; 2.0 Å

B1: full-length malonyl-CoA reductase from Roseiflexus castenholzii (RfxMCR) (enzyme, Roseiflexus castenholzii DSM 13941, UniProt A7NN59 1-1229, looked up)
chain: MSTVRRLEGKVALITGGAGNIGEVITRRFLAEGATVVITGRNAEKLAVYRRRLIDEERVAPERVVALRMDGSDIAQVRAGVAQIVHGGTDVPIPLHRIDILVNNAGSAGPRRRLVDIPLEPSEVQPPDSETLAQAVGNLVGITWNLTRAAAPHMPSGSSVINISTIFSRTDYYGRIAYVAPKAALNALSDGLARELGVRGIRVNTIYPGPIESERIYTMFQAMDALKGQPEGDTASGFLRMMRLSRIDQNGEVVKRFPSPVDVANTAVFLASDESAAFTGHAFEVTHGMEVPTESRTTFVSRPGLRSVDATGKVILICAGDQVDDAVALADTLRSCRATVVIGFRDPRALEKASVLLREPRHALAADMYGRPTMTAEARLVRLDPLDPRAAAQTLEQIHAELGAIHHAVVLPGQSRHAPSASLIEVDDQVVERFLHQELVGTIALARELARFWEEYPSGSSMHRVLFVSNPDDQQGNQYSHILRAAVEQLVRVWRHESEYDSVNPAHQQEGQSSAAVWANQLIRYVNNEMANLDFTCAWVAKLLGSDRRIAEINLYLPEEIVGTIGVHNPGFGWAESLFGLHMGKVALITGGSAGIGGQIGRLLALSGAHVMLAARNADQLEQMRASIVREVRDASYPDAESRVAIFPGSDVSDIDGLERLVNHTVRVFGKVDYLINNAGIAGAEEMVIDMPVDAWRHTLRANLISNYALLRRLAPQMKAAGGAYVLNVSSYFGGEKYVAIPYPNRSDYAVSKAGQRAMVESLARFLGPEIQINAIAPGPVEGERLKGAGSRPGLFMRRARLILENKRLNEVFAALLAARHEGATIADLLPDLFANDIQSIANSAAMPAPLRRLATMLRETSDAGGSAQSYLMNATIARKLLNRLENGGYITLHDRRALTVEPPEPFFTEAQIEREAIKVRDGILGMLHLQRMPTEFDVALATVFYLADRNVTGETFHPSGGLRFERTVTEGELFGKPGQQRLERLKGSVVYLIGEHLRQHLVLLARTFLDEIHVARVVLLTETTQAATDLAAELSDYEAAGRFVVIPTCGDIEGGIDRAMAEYGRPGPVISTPFRPLPDRALSARNGDWSSVLTTAEFEELVEQQITHHFRVARKAGLIEGANVTLVTPPTSARSTSEEFALANFVKTTLHALTATAGAESERTVPHVPVNQVDLTRRARSEEPRTPSEEEEELQRFVNAVLLTSAPLPTPLESRYRARIYRGNAITV
notes: malonyl-CoA reductase (MCR) of Roseiflexus castenholzii DSM 13941, gene Rcas_2929, full length Met1-Val1229; Cloned into pET20b at XhoI and NdeI; also called full-length RfxMCR; wild-type RfxMCR
Q: B1 was tested. Which Km [1] did it give?
A: 380 ± 80 µM

Q: And the kcat [1]?
A: 5.65 ± 0.57 s⁻¹

Q: What about the kcat/Km [1] of the same protein?
A: 14800 ± 1540 M⁻¹ s⁻¹

Q: What about the “stoichiometry N” value [2] of the same protein?
A: 2

B2: RfxMCR-N (Met1-Phe572) (domain or fragment, Roseiflexus castenholzii DSM 13941, UniProt A7NN59 1-572, looked up)
chain: MSTVRRLEGKVALITGGAGNIGEVITRRFLAEGATVVITGRNAEKLAVYRRRLIDEERVAPERVVALRMDGSDIAQVRAGVAQIVHGGTDVPIPLHRIDILVNNAGSAGPRRRLVDIPLEPSEVQPPDSETLAQAVGNLVGITWNLTRAAAPHMPSGSSVINISTIFSRTDYYGRIAYVAPKAALNALSDGLARELGVRGIRVNTIYPGPIESERIYTMFQAMDALKGQPEGDTASGFLRMMRLSRIDQNGEVVKRFPSPVDVANTAVFLASDESAAFTGHAFEVTHGMEVPTESRTTFVSRPGLRSVDATGKVILICAGDQVDDAVALADTLRSCRATVVIGFRDPRALEKASVLLREPRHALAADMYGRPTMTAEARLVRLDPLDPRAAAQTLEQIHAELGAIHHAVVLPGQSRHAPSASLIEVDDQVVERFLHQELVGTIALARELARFWEEYPSGSSMHRVLFVSNPDDQQGNQYSHILRAAVEQLVRVWRHESEYDSVNPAHQQEGQSSAAVWANQLIRYVNNEMANLDFTCAWVAKLLGSDRRIAEINLYLPEEIVGTIGVHNPGF
notes: malonyl-CoA reductase (MCR) of Roseiflexus castenholzii DSM 13941, gene Rcas_2929, residues Met1-Phe572 (SDR1 and SDR2 domains); Cloned into pET28a at XhoI and NcoI; also called N-terminal fragment; SDR1-SDR2
Q: How did the “stoichiometry N” value [3] turn out when B2 was run?
A: 2

B3: RfxMCR single mutant E576A (enzyme, Roseiflexus castenholzii DSM 13941)
chain: B1 chain with E576A
notes: malonyl-CoA reductase (MCR) of Roseiflexus castenholzii DSM 13941, gene Rcas_2929, with E576A; source: E. coli BL21(DE3), purified following the same procedure as the wild-type protein
Q: B3 was tested. Which “stoichiometry N” value [2] did it give?
A: 2

B4: RfxMCR double mutant W574A E576A (enzyme, Roseiflexus castenholzii DSM 13941)
chain: B1 chain with W574A, E576A
notes: malonyl-CoA reductase (MCR) of Roseiflexus castenholzii DSM 13941, gene Rcas_2929, with W574A and E576A; source: E. coli BL21(DE3), purified following the same procedure as the wild-type protein
Q: B4 was tested. Which “stoichiometry N” value [2] did it give?
A: 2

B5: RfxMCR triple mutant W574A E576A F579A (enzyme, Roseiflexus castenholzii DSM 13941)
chain: B1 chain with W574A, E576A, F579A
notes: malonyl-CoA reductase (MCR) of Roseiflexus castenholzii DSM 13941, gene Rcas_2929, with W574A, E576A and F579A; source: E. coli BL21(DE3), purified following the same procedure as the wild-type protein
Q: Which “stoichiometry N” value [2] does the source give for B5 here?
A: 2
